Measurements published in article PMC3506619 (PLoS ONE, 2012).

B1: refolded methionine adenosyltransferase II catalytic α2 subunit (human MAT2A) (enzyme)
chain: not shown
notes: human MAT2A ORF from lymphocyte RNA, non-tagged; all cloned ORFs carried A233V and G193S against previously reported cDNAs; Dimer by gel filtration at low concentration, dimer and tetramer at higher concentration; Runs as a double band (α2 and α2′) on SDS-PAGE; The ITC methods say only 'α2 subunit'; also called MAT α2

Assays:
[1] = target: the molecule itself; test: SEC; analytical gel filtration on Superose 12 10/300 GL, refolded α2 50 µg injected, 20 mM Tris/HCl pH 8, 10 mM MgSO4, 150 mM KCl; detection by MAT activity and dot blot
[2] = target: the molecule itself; test: SEC; analytical gel filtration on Superose 12 10/300 GL, refolded α2 at higher protein concentration (200 µg injected), 20 mM Tris/HCl pH 8, 10 mM MgSO4, 150 mM KCl; detection by MAT activity and dot blot
[3] = target: B1; test: SEC; equimolar refolded α2 and β (wild type, mutant or truncated) mixed 1 h at 4°C, hetero-oligomer isolated on Biogel A 1.5 m in 50 mM Tris/HCl pH 8, 10 mM MgSO4, 50 mM KCl; peak on SDS-PAGE, densitometric scanning of Coomassie-stained bands; conditions: both partners purified

Binder | stoichiometry N [1] | stoichiometry N [2] | (α2+α2′)/β subunit ratio [3]
B1 | 2 | 4 | 
ΔS16 truncated β subunit of methionine adenosyltransferase II (domain or fragment, human) GSHSCRLVEEEVNIPNRRVLVTGATGLLGRAVHKEFQQNNWHAVGCGFRRARPKFEQVNLLDSNAVHHIIHDFQPHVIVHCAAERRPDVVENQPDAASQLNVDASGNLAKEAAAVGAFLIYISSDYVFDGTNPPYREEDIPAPLNLYGKTKLDGEKAVLENNLGAAVLRIPILYGEVEKLEESAVTVMFDKVQFSNKSANMDHWQQRFPTHVKDVATVCRQLAEKRMLDPSIKGTFHWSGNEQMTKYEMACAIADAFNLPSSHLRPITDSPVLGAQRPRNAQLDCSKLETLGIGQRTPFRIGIKESLWPFLIDKRWRQTVFH |  |  | 2
